One block for each binder: values may come before it.
Key:
[1] = molecular target: full length recombinant alpha synuclein (UniProt P37840 1-140); assay: ELISA; synthetic peptides (5 µg/mL in PBS, 10 mM EDTA) coupled through cysteine to maleimide-activated microplate wells, blocked with L-cysteine; 0.1 µg/mL recombinant protein added 1 h at 37 °C; biotinylated detection antibody, streptavidin-HRP, TMB, absorbance at 450 nm; details: both partners purified
[2] = molecular target: T1, full length recombinant TDP-43 (UniProt Q13148 1-414); assay: as above; details: both partners purified
T1 construct: Called monomeric in the conventional ELISA; also called full-length TDP-43; source: recombinant
T1 sequence (Q13148 whole entry): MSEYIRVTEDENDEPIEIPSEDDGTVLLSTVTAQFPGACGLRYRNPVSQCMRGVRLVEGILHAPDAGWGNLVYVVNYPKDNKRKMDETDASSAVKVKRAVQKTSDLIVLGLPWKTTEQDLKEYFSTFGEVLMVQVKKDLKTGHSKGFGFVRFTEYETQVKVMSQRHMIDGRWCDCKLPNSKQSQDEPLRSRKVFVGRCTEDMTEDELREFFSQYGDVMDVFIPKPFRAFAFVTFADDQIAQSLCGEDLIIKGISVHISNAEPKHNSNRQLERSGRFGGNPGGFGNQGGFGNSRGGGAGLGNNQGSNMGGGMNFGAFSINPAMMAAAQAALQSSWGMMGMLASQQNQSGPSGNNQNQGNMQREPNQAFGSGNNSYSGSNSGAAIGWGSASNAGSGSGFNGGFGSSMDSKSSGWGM

binding result [1]: binds
B1: TDP-43 overlapping peptide aa 305–323 (peptide)
peptide: SNMGGGMNFGAFSINPAMM
notes: source: synthetic peptide (Lugen Sci Co., Ltd.)

binding result [2]: binds
B2: α-synuclein peptide, amino acids 61–76 (peptide, UniProt P37840 61-76, looked up)
peptide: EQVTNVGGAVVTGVTA
notes: alpha synuclein residues 61-76, start of the non-amyloid β component (NAC); also called first 16 residues of the NAC; first 15 residues of the NAC region; source: synthetic peptide (Lugen Sci Co., Ltd.)

binding result [1]: binds
B3: TDP-43 peptide 17 (aa 310–329) (peptide)
peptide: GMNFGAFSINPAMMAAAQAA
notes: That this stretch has no internal cysteine is my surmise; source: synthetic peptide (Lugen Sci Co., Ltd.)

From article PMC8836581, “A Microplate-Based Approach to Map Interactions between TDP-43 and α-Synuclein” (Journal of Clinical Medicine, 2022)
